Experimental data from patent US20170158755A1 (PROTHENA BIOSCIENCES, published 2017).

T1: human LAMA4 LG4-5 modules displayed on 293 cells (human, UniProt Q16363 1453-1821)
T1 construct: pDisplay construct on 293 cells; vector tags and anchor not written here
T1 sequence: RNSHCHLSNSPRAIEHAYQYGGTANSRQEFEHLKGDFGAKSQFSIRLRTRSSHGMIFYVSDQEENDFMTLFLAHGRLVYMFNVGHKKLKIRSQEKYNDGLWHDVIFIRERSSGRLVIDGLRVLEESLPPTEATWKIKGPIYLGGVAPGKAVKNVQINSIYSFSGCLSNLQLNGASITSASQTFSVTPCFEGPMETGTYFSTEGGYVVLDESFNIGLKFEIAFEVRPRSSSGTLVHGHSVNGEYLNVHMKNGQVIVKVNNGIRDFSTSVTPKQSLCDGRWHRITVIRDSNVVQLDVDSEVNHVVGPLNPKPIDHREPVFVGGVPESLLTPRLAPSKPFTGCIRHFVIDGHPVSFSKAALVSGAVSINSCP

T2: human LAMA4 G domain (LG1-5) displayed on 293 cells (human, UniProt Q16363 830-1821)
T2 construct: the vector's tags and membrane anchor are not written here; also called LAMA4-displaying human 293 cells; full length
T2 sequence: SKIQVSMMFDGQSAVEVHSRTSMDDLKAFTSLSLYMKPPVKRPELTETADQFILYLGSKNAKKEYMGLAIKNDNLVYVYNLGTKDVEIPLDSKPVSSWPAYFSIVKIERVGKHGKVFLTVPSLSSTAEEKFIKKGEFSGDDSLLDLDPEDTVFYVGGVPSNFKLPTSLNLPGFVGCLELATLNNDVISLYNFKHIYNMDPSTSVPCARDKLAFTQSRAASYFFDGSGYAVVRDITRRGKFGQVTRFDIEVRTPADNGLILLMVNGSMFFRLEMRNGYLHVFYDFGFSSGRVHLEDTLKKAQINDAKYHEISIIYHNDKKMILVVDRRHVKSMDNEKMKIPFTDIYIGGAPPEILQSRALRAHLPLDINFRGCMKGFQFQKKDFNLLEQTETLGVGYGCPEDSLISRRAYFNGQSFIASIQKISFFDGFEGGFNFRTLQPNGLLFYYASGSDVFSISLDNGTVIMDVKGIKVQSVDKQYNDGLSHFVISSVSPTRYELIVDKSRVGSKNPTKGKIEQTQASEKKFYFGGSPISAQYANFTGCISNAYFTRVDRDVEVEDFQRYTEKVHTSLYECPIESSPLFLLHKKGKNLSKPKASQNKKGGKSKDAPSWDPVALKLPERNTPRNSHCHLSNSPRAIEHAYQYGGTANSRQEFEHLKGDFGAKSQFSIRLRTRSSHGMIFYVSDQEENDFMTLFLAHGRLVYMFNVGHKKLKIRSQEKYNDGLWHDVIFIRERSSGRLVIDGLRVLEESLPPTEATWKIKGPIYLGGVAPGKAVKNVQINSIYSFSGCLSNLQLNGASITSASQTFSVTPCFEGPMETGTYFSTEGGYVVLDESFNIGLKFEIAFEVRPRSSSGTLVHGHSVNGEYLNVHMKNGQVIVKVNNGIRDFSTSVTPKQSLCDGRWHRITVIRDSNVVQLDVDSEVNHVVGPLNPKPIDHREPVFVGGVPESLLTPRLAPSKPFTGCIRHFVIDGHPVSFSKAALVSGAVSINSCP

T3: human LAMA4 LG1-3 modules displayed on 293 cells (human, UniProt Q16363 830-1430)
T3 construct: pDisplay construct on 293 cells; vector tags and anchor not written here
T3 sequence: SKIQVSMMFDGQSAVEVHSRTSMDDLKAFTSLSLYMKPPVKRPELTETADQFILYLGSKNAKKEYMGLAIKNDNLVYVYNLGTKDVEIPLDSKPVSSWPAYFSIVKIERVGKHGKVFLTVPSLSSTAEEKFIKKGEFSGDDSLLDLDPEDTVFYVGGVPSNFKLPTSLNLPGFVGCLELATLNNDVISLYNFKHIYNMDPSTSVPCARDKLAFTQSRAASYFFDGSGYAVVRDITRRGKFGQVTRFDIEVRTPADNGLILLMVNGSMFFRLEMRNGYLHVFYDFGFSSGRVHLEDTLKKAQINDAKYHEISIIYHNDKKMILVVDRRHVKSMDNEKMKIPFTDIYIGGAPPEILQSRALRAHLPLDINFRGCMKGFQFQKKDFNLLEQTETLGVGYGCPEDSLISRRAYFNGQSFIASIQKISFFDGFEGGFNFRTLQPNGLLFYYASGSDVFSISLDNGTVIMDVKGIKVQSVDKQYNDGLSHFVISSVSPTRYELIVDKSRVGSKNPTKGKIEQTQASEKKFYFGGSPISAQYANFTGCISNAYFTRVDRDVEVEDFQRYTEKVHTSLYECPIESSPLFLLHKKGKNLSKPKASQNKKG


Key:
[1] = molecular target: T1, human LAMA4 LG4-5 modules displayed on …; test: flow cytometry on 293 cells displaying LAMA4 G-domain variants; % binding
From the text: (§1) LGde1 has a full-length G domain (i.e., LG1-5) with LG1 deleted, LGde2 has a full-length G domain with LG2 deleted, and LGde3 has a full-length G domain with LG3 deleted. Recombinant MCAM-Fc protein was able to specifically bind 293 cells expressing LAMA4 variants LG1-5, LG1-3, and LGde 1 (LG23), but not 293 cells expressing LAMA 4 variants LG4-5, LGde2 (LG13), or LGde3 (LG12).

[2] = molecular target: T2, human LAMA4 G domain (LG1-5) displayed …; test: LAMA4 pDisplay flow cytometric blocking assay on LAMA4-displaying 293 cells; blocked ligand: 650-conjugated mouse MCAM-Fc
[3] = molecular target: T2, human LAMA4 G domain (LG1-5) displayed …; test: flow cytometry on 293 cells displaying LAMA4 G-domain variants; % binding
From the text: as §1

[4] = molecular target: T3, human LAMA4 LG1-3 modules displayed on …; test: as above
From the text: as §1

binding result [1] | IC50 (read off the curve) [2] | binding result [3] | binding result [4] | Binder
no binding | ~0.03 µg/mL | – | – | mouse monoclonal antibody 19C12 (antibody, V domains shown, Mouse hybridoma antibody; Mouse IgG2b was used as its isotype control; also called m19C12) VH: QVQLQQSGAELVKPGASVKISCKASGYAFSTYWMNWVKQRPGEGLEWIGQIYPGDGDTNYNGKFKGKATLTADKSSSTAYMQLSSLTSEDSAVYFCARSDGYYDYWGQGTTLTVSS VL: NIVLTQSPASLAVSLGQRATISCRASESVDSYGTSFMHWYQQKPGQPPKLLICLASSLESGVPARFSGSGSRTDFTLTIDPVEADDAATYYCQQNNEDPPTFGAGTKLELKR
– | – | binds | binds | mouse MCAM-Fc fusion protein (Fc fusion, UniProt Q8R2Y2 24-563, looked up, extracellular domain; Made in house; also called mMCAM-Fc; 650-conjugated mouse MCAM-Fc; not shown: human IgG1 (Fc part of the fusion)) VPGEEKQPVPTPDLVEAEVGSTALLKCGPSRASGNFSQVDWFLIHKERQILIFRVHQGKGQREPGEYEHRLSLQDSVATLALSHVTPHDERMFLCKSKRPRLQDHYVELQVFKAPEEPTIQANVVGIHVDRQELREVATCVGRNGYPIPQVLWYKNSLPLQEEENRVHIQSSQIVESSGLYTLKSVLSARLVKEDKDAQFYCELSYRLPSGNHMKESKEVTVPVFYPAEKVWVEVEPVGLLKEGDHVTIRCLTDGNPQPHFTINKKDPSTGEMEEESTDENGLLSLEPAEKHHSGLYQCQSLDLETTITLSSDPLELLVNYVSDVQVNPTAPEVQEGESLTLTCEAESNQDLEFEWLRDKTGQLLGKGPVLQLNNVRREAGGRYLCMASVPRVPGLNRTQLVSVGIFGSPWMALKERKVWVQENAVLNLSCEASGHPQPTISWNVNGSATEWNPDPQTVVSTLNVLVTPELLETGAECTASNSLGSNTTTIVLKLVTLTTLIPDSSQTTGLSTLTVSPHTRANSTSTEKKLPQPESKGVV
